The values that follow come from paper PMC10163027, “Coordinated regulation of vegetative phase change by brassinosteroids and the age pathway in Arabidopsis” (Nature Communications, 2023).

B1: 6×His-SPL9 (natural protein, Arabidopsis, UniProt Q700W2 1-375, looked up)
chain: MEMGSNSGPGHGPGQAESGGSSTESSSFSGGLMFGQKIYFEDGGGGSGSSSSGGRSNRRVRGGGSGQSGQIPRCQVEGCGMDLTNAKGYYSRHRVCGVHSKTPKVTVAGIEQRFCQQCSRFHQLPEFDLEKRSCRRRLAGHNERRRKPQPASLSVLASRYGRIAPSLYENGDAGMNGSFLGNQEIGWPSSRTLDTRVMRRPVSSPSWQINPMNVFSQGSVGGGGTSFSSPEIMDTKLESYKGIGDSNCALSLLSNPHQPHDNNNNNNNNNNNNNNTWRASSGFGPMTVTMAQPPPAPSQHQYLNPPWVFKDNDNDMSPVLNLGRYTEPDNCQISSGTAMGEFELSDHHHQSRRQYMEDENTRAYDSSSHHTNWSL
notes: SPL9 of Arabidopsis; the SPL9 ORF was cloned into pET-30a (+); Printed both as 6×His-SPL9 and SPL9-His; pET-30a(+) may add further vector residues (surmised); also called SPL9-His; SPL9-HIS; source: E. coli Rosetta (DE3), purified (Ni-NTA)
B2: GST-BIN2 (enzyme, Arabidopsis, UniProt Q39011 1-380, looked up)
chain: MADDKEMPAAVVDGHDQVTGHIISTTIGGKNGEPKQTISYMAERVVGTGSFGIVFQAKCLETGETVAIKKVLQDRRYKNRELQLMRVMDHPNVVCLKHCFFSTTSKDELFLNLVMEYVPESLYRVLKHYSSANQRMPLVYVKLYMYQIFRGLAYIHNVAGVCHRDLKPQNLLVDPLTHQVKICDFGSAKQLVKGEANISYICSRFYRAPELIFGATEYTTSIDIWSAGCVLAELLLGQPLFPGENAVDQLVEIIKVLGTPTREEIRCMNPHYTDFRFPQIKAHPWHKIFHKRMPPEAIDFASRLLQYSPSLRCTALEACAHPFFDELREPNARLPNGRPFPPLFNFKQEVAGSSPELVNKLIPDHIKRQLGLSFLNQSGT
notes: BIN2, GSK3-like kinase of Arabidopsis; the BIN2 ORF was cloned into pPGH (derived from pGEX4T-2); Printed both as GST-BIN2 and BIN2-GST; a vector derived from pGEX4T-2 would put GST at the N-terminus (surmised); also called BIN2-GST; pPGH-BIN2; source: E. coli Rosetta (DE3), purified (GST resin)

The target in the assay “GST-BIN2” is B2. Briefly: pull-down; purified His-tagged protein incubated with resin bound with GST or GST-BIN2 at 4 °C for 4 h; washed five times with PBS-EW; blots with anti-His and anti-GST. The following applies: both partners purified.
In another assay the target is T1, 6×His-TOE1 (Arabidopsis, UniProt Q9SK03 1-449).
T1 construct: TOE1 (AP2-like protein) of Arabidopsis; the TOE1 ORF was cloned into pET-30a (+); Printed both as 6×His-TOE1 and TOE1-His; pET-30a(+) may add further vector residues (surmised); also called TOE1-His; TOE1-HIS; source: E. coli Rosetta (DE3), purified (Ni-NTA)
T1 sequence (Q9SK03 whole entry): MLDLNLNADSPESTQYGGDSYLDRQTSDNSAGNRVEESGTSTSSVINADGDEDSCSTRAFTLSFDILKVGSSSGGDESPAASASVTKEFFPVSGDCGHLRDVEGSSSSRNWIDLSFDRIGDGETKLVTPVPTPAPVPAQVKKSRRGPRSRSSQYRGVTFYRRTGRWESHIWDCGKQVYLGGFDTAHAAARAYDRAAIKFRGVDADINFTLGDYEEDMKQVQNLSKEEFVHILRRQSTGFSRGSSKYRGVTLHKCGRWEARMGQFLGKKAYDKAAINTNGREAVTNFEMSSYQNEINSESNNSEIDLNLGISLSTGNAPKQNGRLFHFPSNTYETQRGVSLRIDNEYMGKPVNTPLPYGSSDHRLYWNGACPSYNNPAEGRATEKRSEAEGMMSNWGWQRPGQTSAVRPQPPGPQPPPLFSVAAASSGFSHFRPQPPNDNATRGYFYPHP
The description is as above. The settings on record: both partners purified.

Take B1: the binding result with GST-BIN2 is “binds”.

As to B2, in the assay with 6×His-TOE1, the binding result was “binds”.
